Source: patent publication US20240174727A1, “LONG-ACTING NATRIURETIC PEPTIDES AND USES THEREOF” (Eli Lilly and Company, priority 2022, published 2024)
Numbered stars: 1 amine (or outer) side, 2 acyl side, 3 side chain; on linkers, the order of the positions; unused ones are H or OH. Bridge positions count the residues as written; N and C are the ends. Square brackets hold non-standard residues; d marks the D form. Primed or numbered codes have the meaning given here. Ends that are not written are not given here. * marks the point of attachment. thioacetal = thioacetal linkage between two cysteines (intrachain bond at the bracketed Cys); C20 diacid = O=C(O)CCCCCCCCCCCCCCCCCCC(=O)*; γGlu = O=C(O)[C@H](CCC(=O)[*:2])N[*:1]; 4Pal = N[C@@H](Cc1ccncc1)C(=O)O; thioacetal″ = not defined here; βAla = NCCC(=O)O

T1: rat NPRA (rat, UniProt P18910 29-1057)
T1 sequence (looked up): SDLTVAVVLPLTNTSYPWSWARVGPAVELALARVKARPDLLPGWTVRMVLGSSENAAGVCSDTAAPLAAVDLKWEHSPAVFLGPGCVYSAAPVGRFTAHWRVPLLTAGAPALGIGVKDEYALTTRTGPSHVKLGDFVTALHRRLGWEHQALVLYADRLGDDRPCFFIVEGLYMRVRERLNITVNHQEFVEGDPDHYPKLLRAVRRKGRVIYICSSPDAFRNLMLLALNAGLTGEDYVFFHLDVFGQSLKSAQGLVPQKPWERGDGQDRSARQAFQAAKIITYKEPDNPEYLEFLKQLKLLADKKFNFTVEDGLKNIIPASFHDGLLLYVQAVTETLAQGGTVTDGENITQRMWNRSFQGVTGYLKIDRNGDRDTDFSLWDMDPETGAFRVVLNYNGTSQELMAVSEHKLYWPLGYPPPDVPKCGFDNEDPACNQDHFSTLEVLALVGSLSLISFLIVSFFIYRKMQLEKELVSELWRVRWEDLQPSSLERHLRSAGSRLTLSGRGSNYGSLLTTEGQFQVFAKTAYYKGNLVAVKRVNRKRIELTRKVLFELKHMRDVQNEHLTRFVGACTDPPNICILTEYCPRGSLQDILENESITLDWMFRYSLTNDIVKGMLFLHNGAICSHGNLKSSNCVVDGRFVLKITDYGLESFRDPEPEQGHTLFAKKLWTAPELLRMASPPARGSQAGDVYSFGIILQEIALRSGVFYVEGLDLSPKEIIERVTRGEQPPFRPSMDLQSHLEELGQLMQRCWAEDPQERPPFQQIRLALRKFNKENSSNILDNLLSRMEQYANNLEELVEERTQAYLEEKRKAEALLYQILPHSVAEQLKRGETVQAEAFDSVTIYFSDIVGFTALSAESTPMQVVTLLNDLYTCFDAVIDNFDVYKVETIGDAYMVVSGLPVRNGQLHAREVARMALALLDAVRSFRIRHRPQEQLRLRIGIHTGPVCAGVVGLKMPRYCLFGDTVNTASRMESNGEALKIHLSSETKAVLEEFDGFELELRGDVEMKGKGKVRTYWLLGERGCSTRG

T2: human NPRA (human, UniProt P16066 33-1061)
T2 sequence (looked up): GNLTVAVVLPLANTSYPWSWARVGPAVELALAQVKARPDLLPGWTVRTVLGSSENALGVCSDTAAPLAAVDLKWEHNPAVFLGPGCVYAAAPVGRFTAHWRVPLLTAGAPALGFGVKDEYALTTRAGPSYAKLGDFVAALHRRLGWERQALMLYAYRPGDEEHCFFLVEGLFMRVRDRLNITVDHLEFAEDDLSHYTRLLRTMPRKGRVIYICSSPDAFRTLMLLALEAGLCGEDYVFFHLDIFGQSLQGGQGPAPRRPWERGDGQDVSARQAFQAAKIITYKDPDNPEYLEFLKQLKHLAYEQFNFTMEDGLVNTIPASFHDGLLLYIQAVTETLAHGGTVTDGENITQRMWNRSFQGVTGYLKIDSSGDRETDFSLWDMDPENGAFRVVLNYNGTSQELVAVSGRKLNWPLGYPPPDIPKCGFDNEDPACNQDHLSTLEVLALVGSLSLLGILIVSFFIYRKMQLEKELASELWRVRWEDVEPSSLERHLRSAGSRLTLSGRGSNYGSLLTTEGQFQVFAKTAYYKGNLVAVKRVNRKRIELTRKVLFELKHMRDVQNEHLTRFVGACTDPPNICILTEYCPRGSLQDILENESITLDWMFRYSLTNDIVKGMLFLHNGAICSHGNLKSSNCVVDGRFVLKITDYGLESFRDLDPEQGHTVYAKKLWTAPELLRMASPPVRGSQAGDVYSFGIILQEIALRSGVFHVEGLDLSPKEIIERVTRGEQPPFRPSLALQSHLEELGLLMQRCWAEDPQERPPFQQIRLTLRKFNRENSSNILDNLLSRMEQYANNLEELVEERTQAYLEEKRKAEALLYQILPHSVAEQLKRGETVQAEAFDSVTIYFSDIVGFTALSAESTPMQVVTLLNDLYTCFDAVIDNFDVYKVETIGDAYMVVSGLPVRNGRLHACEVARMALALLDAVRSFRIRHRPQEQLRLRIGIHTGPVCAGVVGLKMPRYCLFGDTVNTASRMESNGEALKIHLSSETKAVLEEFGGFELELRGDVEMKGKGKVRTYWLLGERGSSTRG


Legend:
rat NPRA = target: T1, rat NPRA; assay: cell-based or functional assay
human NPRA = target: T2, human NPRA; assay: cell-based or functional assay

Binder	cGMP Assay (EC50, pM) w/BSA (rat NPRA)	cGMP Assay (EC50, pM) w/Casein (rat NPRA)	cGMP Assay (EC50, pM) w/BSA (human NPRA)	cGMP Assay (EC50, pM) w/Casein (human NPRA)
SXRRSSCFGGRIDRIGHQSGLGCPSFRHGGKSSGAPPPS (HOOC-(CH2)18-CO-(γGlu)-EKEKEKG-PEG12-S-4Pal-RRSS[CFGGRIDRIGHQSGLGC]PSFRHGGKSSGAPPPS-NH2; thioacetal linkage between the bracketed Cys) [Example 82]	836000 pM	25400 pM	32600 pM	623 pM
EKXRSSCFGKRIDRIGHQSGLGCPSFRHGGKSSGAPPPS (HOOC-(CH2)18-CO-(γGlu)-EKEKEKG-(AEEA)4-EK-βAla-RSS[CFGKRIDRIGHQSGLGC]PSFRHGGKSSGAPPPS-NH2; thioacetal linkage between the bracketed Cys) [Example 88]	1.05e+06 pM	11400 pM	16300 pM	520 pM
SXRRSSCFGGRIDRIGHQSGLGCPSFRHGGKSSGAPPPS (HOOC-(CH2)18-CO-(γGlu)-EKEKEKG-(AEEA)6-S-4Pal-RRSS[CFGGRIDRIGHQSGLGC]PSFRHGGKSSGAPPPS-NH2; thioacetal linkage between the bracketed Cys) [Example 86]	868000 pM	17900 pM	25200 pM	1020 pM
SXRRSSCFGGRIDRIGHYSGLGCPSFRHGGKSSGAPPPS (HOOC-(CH2)18-CO-(γGlu)-EKEKEKG-(AEEA)8-S-4Pal-RRSS[CFGGRIDRIGHYSGLGC]PSFRHGGKSSGAPPPS-NH2; thioacetal linkage between the bracketed Cys) [Example 91]	549000 pM	16200 pM	13900 pM	1000 pM
SXRRSSCFGKRIDRIGHQSGLGCPSFRHGGKSSGAPPPS (HOOC-(CH2)18-CO-(γGlu)-EKEKEKG-(AEEA)8-S-4Pal-RRSS[CFGKRIDRIGHQSGLGC]PSFRHGGKSSGAPPPS-NH2; thioacetal linkage between the bracketed Cys) [Example 87]	463000 pM	8870 pM	3380 pM	621 pM
SXRRSSCFGGRIDRIGHYSGLGCPSFRHGGKSSGAPPPS (HOOC-(CH2)18-CO-(γGlu)-EKEKEKG-(AEEA)6-S-4Pal-RRSS[CFGGRIDRIGHYSGLGC]PSFRHGGKSSGAPPPS-NH2; thioacetal linkage between the bracketed Cys) [Example 92]	290000 pM	12400 pM	10100 pM	772 pM
SXRRSSCFGGRIDRIGHYSGLGCPSFRHGGKSSGAPPPS (HOOC-(CH2)18-CO-(γGlu)-EKEKEKG-PEG24-S-4Pal-RRSS[CFGGRIDRIGHYSGLGC]PSFRHGGKSSGAPPPS-NH2; thioacetal linkage between the bracketed Cys) [Example 95]	322000 pM	12300 pM	7030 pM	771 pM
SXRRSSCFGGRIDRIGHYSGLGCPSFRHGSPSSGAPPPS (HOOC-(CH2)18-CO-(γGlu)-EKEKEKG-(AEEA)6-S-4Pal-RRSS[CFGGRIDRIGHYSGLGC]PSFRHGSPSSGAPPPS-NH2; thioacetal linkage between the bracketed Cys) [Example 96]	401000 pM	12200 pM	12700 pM	720 pM
EKXRSSCFGKRIDRIGHQSGLGCPSFRHGGKSSGAPPPS (HOOC-(CH2)18-CO-(γGlu)-EKEKEKG-(AEEA)6-EK-βAla-RSS[CFGKRIDRIGHQSGLGC]PSFRHGGKSSGAPPPS-NH2; thioacetal linkage between the bracketed Cys) [Example 89]	819000 pM	13800 pM	10800 pM	806 pM
SXRRSSCFGGRIDRIGHQSGLGCPSFRHGGKSSGAPPPS (HOOC-(CH2)18-CO-(γGlu)-EKEKEKG-(AEEA)4-S-4Pal-RRSS[CFGGRIDRIGHQSGLGC]PSFRHGGKSSGAPPPS-NH2; thioacetal linkage between the bracketed Cys) [Example 83]	860000 pM	16700 pM	38400 pM	1040 pM
EKXRSSCFGGKIDRIGHYSGLGCPSFRHGSPSSGAPPPS (HOOC-(CH2)18-CO-(γGlu)-EKEKEKG-PEG24-EK-βAla-RSS[CFGGKIDRIGHYSGLGC]PSFRHGSPSSGAPPPS-NH2; thioacetal linkage between the bracketed Cys) [Example 6]	596000 pM	30500 pM	33300 pM	1530 pM
EKXRSSCFGGRIDRIGHYSGLGCPSFRHGSPSSGAPPPS (HOOC-(CH2)18-CO-(γGlu)-EKEKEKG-(AEEA)6-EK-βAla-RSS[CFGGRIDRIGHYSGLGC]PSFRHGSPSSGAPPPS-NH2; thioacetal linkage between the bracketed Cys) [Example 98]	–	17900 pM	–	1840 pM
EKXRSSCFGGKIDRIGHQSGLGCPSFRHGSPSSGAPPPS (HOOC-(CH2)18-CO-(γGlu)-EKEKEKG-PEG24-EK-βAla-RSS[CFGGKIDRIGHQSGLGC]PSFRHGSPSSGAPPPS-NH2; thioacetal linkage between the bracketed Cys) [Example 7]	1.17e+06 pM	184000 pM	69600 pM	5670 pM
{C20 diacid}-[γGlu]EKEKEKGS[4Pal]RRSSCFGRKIDRIGHQSGLGCPSFRHGGKSSGAPPPS-NH2 (bridge 15-31 via thioacetal) [Example 80]	364000 pM	3550 pM	4750 pM	234 pM
SXRRSSCFGGRIDRIGHQSGLGCPSFRHGGPPSXKPPPK (HOOC-(CH2)18-CO-(γGlu)-EKEKEKG-PEG24-S-4Pal-RRSS[CFGGRIDRIGHQSGLGC]PSFRHGGPPS-Aib-KPPPK-NH2; thioacetal linkage between the bracketed Cys) [Example 84]	547000 pM	24600 pM	9730 pM	1010 pM
{C20 diacid}-[γGlu]EKEKEKGSLRRSSCFGGRIDRIGAQSGLGCNSFR[4Pal]-NH2 (disulfide 15-31; SMILES CC[C@H](C)[C@@H]1NC(=O)[C@H](CCCNC(=N)N)NC(=O)[C@H](CC(=O)O)NC(=O)[C@H]([C@@H](C)CC)NC(=O)[C@H](CCCNC(=N)N)NC(=O)CNC(=O)CNC(=O)[C@H](Cc2ccccc2)NC(=O)[C@@H](NC(=O)[C@H](CO)NC(=O)[C@H](CO)NC(=O)[C@H](CCCNC(=N)N)NC(=O)[C@H](CCCNC(=N)N)NC(=O)[C@H](CC(C)C)NC(=O)[C@H](CO)NC(=O)CNC(=O)[C@H](CCCCN)NC(=O)[C@H](CCC(=O)O)NC(=O)[C@H](CCCCN)NC(=O)[C@H](CCC(=O)O)NC(=O)[C@H](CCCCN)NC(=O)[C@H](CCC(=O)O)NC(=O)CC[C@H](NC(=O)CCCCCCCCCCCCCCCCCCC(=O)O)C(=O)O)CSSC[C@@H](C(=O)N[C@@H](CC(N)=O)C(=O)N[C@@H](CO)C(=O)N[C@@H](Cc2ccccc2)C(=O)N[C@@H](CCCNC(=N)N)C(=O)N[C@@H](Cc2ccncc2)C(N)=O)NC(=O)CNC(=O)[C@H](CC(C)C)NC(=O)CNC(=O)[C@H](CO)NC(=O)[C@H](CCC(N)=O)NC(=O)[C@H](C)NC(=O)CNC1=O) [Example 9]	46700 pM	509 pM	100000 pM	1870 pM
EK[βAla]RSSCFGKRIDRIGHQSGLGCPSFRHGGKSSGAPPPS-NH2 (bridge 7-23 via thioacetal; not fully specified (N-terminus)) [Example 90]	734000 pM	13200 pM	19700 pM	452 pM
{C20 diacid}-[γGlu]EKEKEKGS[4Pal]RRSSCFGKRIDRIGHYSGLGCPSFRHGGKSSGAPPPS-NH2 (bridge 15-31 via thioacetal″; reading uncertain) [Example 81]	127000 pM	1910 pM	5710 pM	388 pM
